B2: human MST1 SARAH domain (residues 432–480) (domain or fragment, UniProt Q13043 432-480, looked up)
chain: DYEFLKSWTVEDLQKRLLALDPMMEQEIEEIRQKYQSKRQPILDAIEAK
notes: mammalian sterile 20-like kinase 1 (MST1, KRS-2), human, 487 residues, SARAH domain residues 432-480; A selenomethionine-labelled form (E. coli B834 (DE3)) was used for SAD phasing; also called KRS-2; hMST1; source: E. coli BL21, GST fusion protein, purified as described previously (Hwang et al., 2007)
B4: human RASSF5 SARAH domain (residues 366–418) (domain or fragment, UniProt Q8WWW0 366-418, looked up)
chain: EVEWDAFSIPELQNFLTILEKEEQDKIQQVQKKYDKFRQKLEEALRESQGKPG

Data set [1] concerns the target B4. In words: NMR titration; MST2 SARAH homodimer titrated with the RASSF5 SARAH domain in solution (Supplementary Fig. S7). The following applies: both partners purified.
Data set [2] deals with the molecule itself. The experiment in a line: crystal structure; MST2 SARAH homodimer, 40 mg/ml; hanging drop, 20°C, 2.0 M NaCl, 8% PEG 6000; space group P4(1)2(1)2, one homodimer in the asymmetric unit; molecular replacement.
Data set [3] deals with the molecule itself. The experiment in a line: cell-based or functional assay.
The target in data set [4] is B4. In words: crystal structure; MST1–RASSF5 SARAH heterodimer (domains mixed 1:2, heterodimer separated on Superdex 75 in 25 mM HEPES pH 7.0, 100 mM NaCl, 2 mM DTT); hanging drop, 20°C, 35% MPD, acetate pH 4.8; space group C222(1), one heterodimer in the asymmetric unit; SAD phasing with SeMet MST1. The following applies: both partners purified.
For data set [5], the target named is T1, human MST1 SARAH domain (residues 432–480) (human) (UniProt Q13043).
T1 sequence: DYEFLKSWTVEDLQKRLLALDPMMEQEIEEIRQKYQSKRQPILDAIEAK

The target of data set [6] is B2. In words: cell-based or functional assay.

B1: human MST2 SARAH domain (residues 436–484) (domain or fragment, UniProt Q13188 436-484, looked up)
chain: DFDFLKNLSLEELQMRLKALDPMMEREIEELRQRYTAKRQPILDAMDAK
notes: mammalian sterile 20-like kinase 2 (MST2, KRS-1), human, 491 residues, SARAH domain residues 436-484; Forms a homodimer (one homodimer in the asymmetric unit); also called KRS-1; hMST2; source: E. coli BL21, GST fusion protein, purified as described previously (Hwang et al., 2010)
On to B1, for which the binding result in data set [1] and in data set [2] was “binds” in each case.

Regarding B2, the “free energy of unfolding of the homodimer, urea-induced denaturation followed by CD, two-state fit” value in data set [3] amounted to 2 kcal/mol. Further, the binding result in data set [4] is on record as “binds”.

B3: RASSF5 SARAH domain double mutant (E388A and K398A) (domain or fragment)
chain: EVEWDAFSIPELQNFLTILEKEAQDKIQQVQKAYDKFRQKLEEALRESQGKPG
B3: in data set [5], the transition concentration (C m) of urea, urea-induced denaturation of the double-mutant SARAH heterodimer followed by CD at 222 nm is 3.2 M.

Take B4: in data set [6], the “free energy of unfolding of the heterodimer, urea-induced denaturation followed by CD, two-state fit” value was found to be 4.8 kcal/mol.

The values above are taken from paper PMC4089488 (Acta Crystallographica Section D: Biological Crystallography, 2014).
